The assay addresses MAPK ERK2 (human, UniProt P28482 1-360). Put plainly: FP.

No end group written: not given here. *: point of attachment. 5FAM = O=C1OC2(c3ccc(O)cc3Oc3cc(O)ccc32)c2ccc(C(=O)*)cc21

In general, Kd refers to the concentration at which binding is half-saturated. Low values mean tighter binding, high ones weaker binding.

MAPK ERK2, sequence (P28482 whole entry): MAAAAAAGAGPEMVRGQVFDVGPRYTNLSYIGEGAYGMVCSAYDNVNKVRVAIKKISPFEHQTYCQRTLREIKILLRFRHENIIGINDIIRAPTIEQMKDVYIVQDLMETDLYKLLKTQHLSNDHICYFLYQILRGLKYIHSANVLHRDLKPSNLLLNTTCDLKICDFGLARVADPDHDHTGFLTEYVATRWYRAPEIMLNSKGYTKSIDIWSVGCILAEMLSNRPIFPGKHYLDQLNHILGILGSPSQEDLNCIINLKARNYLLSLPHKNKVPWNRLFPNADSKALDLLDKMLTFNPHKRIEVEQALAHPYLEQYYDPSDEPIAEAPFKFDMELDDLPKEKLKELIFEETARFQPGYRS

Turning to 5FAM-RLQERRGSNVALMLDV [fluorescent reporter peptide fl-HePTP], the Kd was 23.9 µM.
